# Target: PD-1 (programmed death 1) on peripheral CD4 T cells of treated subjects (human) (UniProt Q15116)
# Assay: flow cytometry of free PD-1 on CD4 T cells of subjects after IV MEDI5752 (receptor occupancy, in vivo dosing >225 mg)
# Chain of UniProt Q15116 (Q15116 25-288): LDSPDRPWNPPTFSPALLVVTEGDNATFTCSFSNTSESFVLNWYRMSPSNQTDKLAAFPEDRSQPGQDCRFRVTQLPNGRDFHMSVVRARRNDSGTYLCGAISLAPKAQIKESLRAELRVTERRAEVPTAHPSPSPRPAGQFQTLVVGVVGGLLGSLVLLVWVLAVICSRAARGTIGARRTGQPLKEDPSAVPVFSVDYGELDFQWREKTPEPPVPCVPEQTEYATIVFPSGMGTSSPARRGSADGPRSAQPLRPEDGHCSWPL
substance,measurement,value
MEDI5752 (bispecific antibody),peripheral PD-1 receptor occupancy,> 90%
